According to PMC4972137 (The EMBO Journal, 2016):

Target: the molecule itself
Assay: crystal structure; NavMs pore crystals grown in the presence of sodium ions; open conformation; four identical chains arranged in two half-tetramers, with the tetramers completed by crystal symmetry

Row | Protein | stoichiometry N
1 | NavMs sodium channel pore protein (wild-type pore of NavMs from M. marinus MC-1 with its complete C-terminal domain) (domain or fragment, Magnetococcus marinus MC-1) GVGSVAALLTVVFYIAAVMATNLYGATFPEWFGDLSKSLYTLFQVMTLESWSMGIVRPVMNVHPNAWVFFIPFIMLTTFTVLNLFIGIIVDAMAITKEQEEEAKTGHHQEPISQTLLHLGDRLDRIEKQLAQNNELLQRQQPQKK | 4
2 | NavMs sodium channel pore protein, E178D selectivity filter mutant (domain or fragment, Magnetococcus marinus MC-1) GVGSVAALLTVVFYIAAVMATNLYGATFPEWFGDLSKSLYTLFQVMTLDSWSMGIVRPVMNVHPNAWVFFIPFIMLTTFTVLNLFIGIIVDAMAITKEQEEEAKTGHHQEPISQTLLHLGDRLDRIEKQLAQNNELLQRQQPQKK | 4
